Data published in publication PMC8262862 (2021).

Legend:
Assay in all cases: ELISA
H1 HA = target: H1 HA
B-Phuket HA = target: B-Phuket HA
H5 HA = target: H5 HA
H9 HA = target: H9 HA
H7 HA = target: H7 HA
H4 HA = target: H4 HA
H14 HA = target: H14 HA
H13 HA = target: H13 HA
H2 HA = target: H2 HA
H6 HA = target: H6 HA
H10 HA = target: H10 HA
H8 HA = target: H8 HA
H3 HA = target: H3 HA

B1: S1V2-51 IgG (antibody, V domains shown)
VH: QVQLVESGGGVVQPGRSLRLSCVASGFTFRDSVMHWVRQAPGKGLEWVAVTSFDGGESYSADSVKGRFTISRDNSKSTLSLQMNILRPEDTGVYYCARDRGGLDVWGQGTTVTVSG
VL: DIVMTQSPESLAVSLGERATINCKSSQSVSFGSSDKNYLGWYQQKPGQPPKLLINWASTRESGVSDRFRGTGSGTDFTLTISSLQAEDAAVYYCHQYYTPPYSFGQGTKLEIK
For B1, the Kd (H1 HA) was > 100 nM, the Kd (B-Phuket HA) was > 100 nM and the Kd (H5 HA) was > 100 nM. For the same binder, the Kd (H9 HA) was 0.21 nM, the Kd (H7 HA) was 0.21 nM and the Kd (H4 HA) was 0.21 nM. The Kd (H14 HA) was > 100 nM, the Kd (H13 HA) was > 100 nM and the Kd (H2 HA) was > 100 nM. For the same binder, the Kd (H6 HA) was 84 nM, the Kd (H10 HA) was 0.42 nM and the Kd (H8 HA) was 0.41 nM. The Kd (H3 HA) was 0.26 nM.
